For experiment [1], the target named is T1, Recombinant human PDGF-BB (human, UniProt P01127 82-190).
T1 construct: For SPR it was chemically biotinylated on primary amines and captured on neutravidin; also called PDGF-BB (human); Reliatech 200-055
Briefly: SPR (ProteOn), biotinylated PDGF-BB on neutravidin chip, DARPin injected; Kd from on- and off-rates. As for the experimental part:
(§1) Biotinylated PDGF-BB molecules from human and mouse were immobilized in a flow cell through binding to coated […] and the interaction with various selected DARPins was analyzed.
(§2) SPR was measured using a ProteOn instrument (BioRad) and measurement was performed according standard procedures known to the person skilled in the art. The running buffer was PBS, pH 7.4, containing 0.005% Tween 20®. Neutravidin was covalently immobilized on a GLC chip (BioRad) to a level of about 8000 resonance units (RU). Immobilization of PDGF-BB on the neutravidin coated chip was then performed. The interaction of DARPin PDGF-BB was then measured by injecting 100 μl running buffer (PBS containing 0.005% Tween®) containing serial dilutions of DARPins of concentration of […] (on-rate measurement), followed by a running buffer flow for between 10 minutes and up to 3 hours at a constant flow rate of 30 μl/min (off-rate measurement). The signals (i.e. resonance unit (RU) values) of an uncoated reference cell and a reference injection (i.e. injection of running buffer only) were subtracted from the RU traces obtained after injection of […] (double-referencing). From the SRP traces obtained from the on-rate and off-rate measurements the on- and off-rate of the corresponding DARPin PDGF-BB interaction can be determined.
(§3) Dissociation constants (Kd) were calculated from the estimated on- and off-rates using standard procedures known to the person skilled in the art.

Experiment [2] has as its target T2, Recombinant murine PDGF-BB (mouse, UniProt P31240 82-190, limits assumed).
T2 construct: For SPR chemically biotinylated on primary amines and captured on neutravidin; also called mouse PDGF-BB; PDGF-BB (mouse)
The description is as above. Here is the method:
as §1, §2, §3

For experiment [3], the target named is T1, Recombinant human PDGF-BB. The experiment can be described thus: receptor competition ELISA: DARPin preincubated with PDGF-BB, free PDGF-BB captured on coated PDGFRbeta/Fc; mean IC50. As for the experimental part:
The potency of PEGylated anti-PDGF-BB DARPins to inhibit the binding of human PDGF-BB to its receptor PDGFRbeta was determined in a in a receptor competition ELISA (based on PDGF-BB Quantikine, R&D Systems). PDGFRbeta/Fc chimera has been precoated on a microplate. The DARPins were preincubated in assay diluent from the PDGF-BB Quantikine kit (R&D Systems) with a defined amount of PDGF-BB and incubated at room temperature for 2 hours with shaking at 750 rpm. These preincubation mixtures were then transferred into the precoated wells and any PDGF-BB that is not blocked by the DARPins was bound by the immobilized receptor. After washing away any unbound substances, a horse radish peroxidase-linked polyclonal antibody specific for PDGF-BB was added to the wells. Following a wash to remove any unbound antibody-enzyme reagent, a substrate solution was added to the wells and color was developing in proportion to the amount of PDGF-BB bound. The color development was stopped and the intensity of the color was measured at […]. Example titration curves are given for a set of DARPins in FIG. 2. IC₅₀ values were calculated from such titration curves obtained as described above using Graph Pad Prism software and standard procedures known to the person skilled in the art.
(In general: An ELISA detects its analyte on a solid surface through an enzyme-linked reagent.)

The term Kd denotes the concentration at which binding is half-saturated. In general, IC50 refers to the midpoint of a concentration-inhibition curve.

Substitutions are numbered along the chain they refer to. Bounds are passed on as bounds.

T2 sequence (P31240 82-190 limits assumed): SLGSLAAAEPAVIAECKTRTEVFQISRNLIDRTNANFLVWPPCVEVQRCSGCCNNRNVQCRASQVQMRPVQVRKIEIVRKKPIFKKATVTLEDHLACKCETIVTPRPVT
T1 sequence (P01127 82-190 limits assumed): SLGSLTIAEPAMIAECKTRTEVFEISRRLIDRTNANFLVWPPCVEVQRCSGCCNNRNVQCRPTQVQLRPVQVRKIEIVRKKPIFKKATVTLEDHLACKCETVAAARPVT

B1: DARPin #42 (designed binder)
chain: MRGSHHHHHHGSDLGYKLLFAAYVGQDDEVRILLAAGADVNAKDRHGRTPLHLAAWEGHLEIVEVLLKAGADVNAKDDEGTTPLHLLAAWEGHLEIVEVLLKAGADVNAQDVYGATPADLAAYIGHEDIAEVLQKLN
For B1, the Kd in experiment [1] was 0.0805 nM; in experiment [2], 0.0974 nM.

B2: DARPin #57 (designed binder)
chain: MRGSHHHHHHGSDLGKKLLEAARAGQDDEVRILLKAGADVNAKDLNGQTPLHLAADIGHLEIVEVLLKAGADVNAKDYAGSTPLRLAAWAGHLEIVEVLLKAGADVNAKDYFGYTPLHLAAYFGHLEIVEVLLKAGADVNAQDKSGKTPADLAADAGHEDIAEVLQKLN
Turning to B2, the Kd in experiment [1] is 0.123 nM. In experiment [3], the IC50 was determined as 0.204 nM.

B3: DARPin #58 (designed binder)
chain: B2 chain with I32E
For B3, the Kd in experiment [1] stood at 0.257 nM. In addition, the IC50 in experiment [3] is 0.47 nM.

B4: DARPin #29 (designed binder)
chain: MRGSHHHHHHGSDLGKKLLEAARAGQDDEVRILLKAGADVNAKDEEGTTPLHYAAVWGHLEIVEVLLKAGADVNAQDIYGATPADLAALVGHEDIAEVLQKLN
For B4, the Kd in experiment [1] came to 0.105 nM. Moreover, the IC50 in experiment [3] was found to be 0.015 nM.

B5: DARPin #40 (designed binder)
chain: B4 chain with K16Y, E20S, R23Q, A24Y, K35A, E45Y, E46S, V56T, V90I
Take B5: the equilibrium dissociation constant (Kd) in experiment [1] is 0.0344 nM; in experiment [2], 0.0608 nM.

B6: DARPin #32 (designed binder)
chain: B4 chain with K16H, E20Q, R23K, A24H, K35A, E45D, I78A, L89F, V90L
For the molecule B6, the Kd in experiment [1] was 0.0638 nM; in experiment [2], 0.0834 nM.

B7: DARPin #38 (designed binder)
chain: B4 chain with K16D, E20W, R23K, A24H, K35A, E45D, T48S, I62T, Y79W, V90L
Consider B7, for which the Kd was determined as 0.0941 nM in experiment [1] and 0.0583 nM in experiment [2]. Moreover, the IC50 in experiment [3] was 0.085 nM.

B8: DARPin #36 (designed binder)
chain: B4 chain with K16S, E20T, R23L, A24D, K35A, W57V, Y79W
B8: the Kd in experiment [1] is 0.0242 nM; in experiment [2] it was 0.053 nM.

B9: DARPin #33 (designed binder)
chain: B4 chain with K16H, E20Q, R23E, A24Q, K35A, E46Y, Y53F, I78V, Y79F, L89Y
Regarding B9, the results for the dissociation constant Kd in experiment [1] and in experiment [2] were 0.0806 nM and 0.0904 nM, respectively.

B10: DARPin #26 (designed binder)
chain: B4 chain with K35A, V98I
B10: the Kd in experiment [1] amounted to 0.0177 nM; in experiment [2] it was 0.0174 nM.

B11: DARPin #37 (designed binder)
chain: B4 chain with K16W, A24T, K35A, E45I, E46T, V56A, L60M, A69T, I78L, V90L
In the case of B11, the values for the Kd in experiment [1] and in experiment [2] were 0.152 nM and 0.0828 nM, respectively. Further, in experiment [3], the IC50 is more than 0.4 nM.

B12: DARPin #31 (designed binder)
chain: B4 chain with I32E, W57F
As for B12, in experiment [1], the Kd was determined as 0.109 nM. In addition, the IC50 in experiment [3] was found to be 0.48 nM.

B13: DARPin #25 (designed binder)
chain: B4 chain with L34M, K35A, A36N, V98I
As for B13, the figures for the Kd in experiment [1] and in experiment [2] were 0.0147 nM and 0.0128 nM, respectively.

B14: DARPin #52 (designed binder)
chain: MRGSHHHHHHGSDLGKKLLEAARAGQDDEVRILMANGADVNAQDLNGQTPLHLAADIGHLEIVEVLLKHGADVNAQDYAGSTPLRLAAWAGHLEIVEVLLKNGADVNANDYFGYTPLHLAAYFGHLEIVDVLLKHGADVNAQDKFGKTPADIAADNGHEDIAEVLQKLN
As to B14, the IC50 in experiment [3] turned out to be 0.068 nM.

B15: DARPin #47 (designed binder)
chain: MRGSHHHHHHGSDLGKKLLEAARAGQDDEVRILLKAGADVNAKDKSGHTPLHLAAYSGHLEIVEVLLKAGADVNAKDQEGTTPLHFAASVGHLEIVEVLLKAGADVNAQDHYGATPADLAALIGHEDIAEVLQKLN
On to B15, for which the Kd in experiment [1] is 0.0937 nM. In addition, the IC50 in experiment [3] came out at 0.14 nM.

B16: DARPin #46 (designed binder)
chain: B15 chain with L34M, K35A, A36N
For B16, the Kd in experiment [1] stood at 0.112 nM. The IC50 in experiment [3] came out at 0.15 nM.

B17: DARPin #44 (designed binder)
chain: B15 chain with K16A, E20H, R23V, A24V, K35A
Regarding B17, the Kd is 0.0768 nM in experiment [1] and 0.0902 nM in experiment [2]. For the same molecule, the IC50 in experiment [3] worked out at 0.13 nM.

B18: DARPin #45 (designed binder)
chain: B15 chain with I32E
Turning to B18, the Kd in experiment [1] is 0.108 nM. For the same molecule, in experiment [3], the half-maximal inhibitory concentration (IC50) came out at 0.16 nM.

B19: DARPin #34 (designed binder)
chain: MRGSHHHHHHGSDLGDKLLQSDLGRKLLHAARSGQDDEVRILLAAGADVNAKDEDGTTPLHYAAAWGHLEIVEVLLKAGADVNAQDIYGATPADLAAYIGHEDIAEVLQKLN
For B19, the Kd in experiment [1] is 0.0775 nM; in experiment [2], 0.0592 nM. Besides, the IC50 in experiment [3] is 0.21 nM.

B20: DARPin #43 (designed binder)
chain: MRGSHHHHHHGSDLGLKLLEAAQRGQDDEVRILLAAGADVNAKDREGWTPLHVAAYEGHLEIVEVLLKAGADVNAKDYTGLTPLHVAAVWGHLEIVEVLLKAGADVNAQDIYGATPADLAAYIGHEDIAEVLQKLN
Turning to B20, the values for the Kd in experiment [1] and in experiment [2] were 1290 nM and 1510 nM, respectively.

B21: DARPin #35 (designed binder)
chain: MRGSHHHHHHGSDLGQKLLYAAEHGQDDEVRILLAAGADVNAKDQTGSTPLHYAAVWGHMEIVEVLLKAGADVNAQDLWGATPADLAAFLGHEDIAVVLQKLN
Take B21: the Kd in experiment [1] stood at 0.0956 nM; in experiment [2] it was 0.0981 nM.

B22: DARPin #51 (designed binder)
chain: MRGSHHHHHHGSDLGKKLLEAARAGQDDEVRILMANGADVNAKDLNGQTPLHLAADIGHLEIVEVLLKAGADVNAKDYAGSTPLRLAAWAGHLEIVEVLLKAGADVNAKDYFGYTPLHLAAYFGHLEIVEVLLKAGADVNAQDKFGKTAFDISIDNGNEDLAEILQKLN
For B22, the Kd in experiment [1] amounted to 0.121 nM. Besides, the IC50 in experiment [3] is 0.008 nM.

B23: DARPin #55 (designed binder)
chain: B22 chain with M34L, A35K, N36A
As to B23, the Kd in experiment [1] came out at 0.0555 nM. Also, the IC50 in experiment [3] amounted to 0.014 nM.

B24: DARPin #54 (designed binder)
chain: B2 chain with L34M, K35A, A36N
With B24, the Kd in experiment [1] worked out at 0.245 nM. For the same molecule, the IC50 in experiment [3] amounted to 0.21 nM.

B25: DARPin #53 (designed binder)
chain: B2 chain with G15D, L34M, K35A, A36N, S145F, L152I, A156N
Turning to B25, in experiment [1], the Kd was 0.128 nM. In addition, the IC50 in experiment [3] came out at 0.036 nM.

B26: DARPin #56 (designed binder)
chain: B2 chain with G15D, S145F, L152I, A156N
B26: the Kd in experiment [1] was 0.15 nM. Also, the IC50 in experiment [3] is 0.17 nM.
